The values below come from patent publication US20130196320A1, “METHOD FOR IMPROVING CLEAVAGE OF DNA BY ENDONUCLEASE SENSITIVE TO METHYLATION” (CELLECTIS, priority 2010, published 2013).

As a reminder, the kcat is the number of substrate molecules converted per active site and unit of time at saturation.

For data set [1], the system named is ADCY9 target CpG in 293H cells. Kind of data set: DNA methylation status of ADCY9 target by bisulfite technique. The settings on record: 0.2 and 1 μM; 100% methylated without treatment. Type of data set: cell-based, human. On the procedure: The human 293H cells (ATCC) were plated at a density of 1.2×10^6 cells per 10 cm dish in complete medium (DMEM supplemented with 2 mM L-glutamine, penicillin (100 IU/ml), streptomycin (100 μg/ml), amphotericin B (Fongizone: 0.25 μg/ml, Invitrogen-Life Science) and 10% FBS). The cells were pre-treated with 5-aza-deoxycytidine at 0.2 μM or 1 μM, 48 hours before transfection and the treatment was maintained 48 hours post-transfection. The medium was changed every day. The cells were transfected with 5 μg of DNA plasmids encoding meganuclease using Lipofectamine 2000 transfection reagent (Invitrogen) according to the manufacturer's protocol.
The procedure as described in Example 4 was followed to assess the level of DNA methylation, except that we used specific primers to amplify the sequence surrounded the ADCY9 meganuclease recognition site. Primers ADCY9_F1 […] (SEQ ID NO: 43) and ADCY9_R1 […] (SEQ ID NO: 44) were used. PCR products were sequenced directly with primer ADCY9_F2 […] (SEQ ID NO: 45).

The subject of data set [2] is XPC4 target locus in 293H cells. As to the kind of experiment: Meganuclease-induced mutagenesis at XPC4 target locus by deep sequencing, siRNA targeting DNMT1. Type of data set: cell-based, human. The settings on record: for mutagenesis, PCR fragments carrying a mutation: XPC4 meganuclease plasmid. The method, then:
The human 293H cells (ATCC) were plated at a density of 1.2×10^6 cells per 10 cm dish in complete medium (DMEM supplemented with 2 mM L-glutamine, penicillin (100 IU/ml), streptomycin (100 μg/ml), amphotericin B (Fongizone: 0.25 μg/ml, Invitrogen-Life Science) and 10% FBS). The next day, cells were transfected with 5 μg of empty vector pCLS003 (SEQ ID NO: 65) and 1 nM or 5 nM of si_DNMT1 composed of mixture of two siRNA DNMT1—1 ([…], SEQ ID NO: 66) and DNMT1—2 ([…], SEQ ID NO: 67) or with si_AS, a siRNA control with no known human target, using Lipofectamine 2000 as transfection reagent (Invitrogen) according to the manufacturer's protocol. The day after, cells were re-platted at the density of 1.2×10^6 cells per 10 cm. 24 hours after, cells were transfected again with 1 nM or 5 nM of siDNMT1 or si_AS in presence of 3 μg of meganuclease expressing vector (pCLS2510; SEQ ID NO: 68) and 2 μg of empty vector or 5 μg of empty vector (SEQ ID NO: 65), with Lipofectamine 2000 transfection reagent (Invitrogen) according to the manufacturer's protocol.
After genomic DNA extraction, the XPC4 target locus was amplified with specific primers flanked by specific adaptator needed for HTS sequencing on the 454 sequencing system (454 Life Sciences)
5,000 to 10,000 sequences per sample were analyzed.

The next data set concerns ADCY9.1 DNA target. Kind of data set: In vitro single turn over cleavage assay with ADCY9.1. The class given is biochemical. On the procedure: FIG. 13: In vitro cleavage of unmethylated or methylated ADCY9.1 by ADCY9. A constant amount of ADCY9.1 duplex (50 nM) was incubated with an excess of ADCY9 (1.5 μM, final concentration) in the reaction buffer (10 mM Tris-HCl, 150 mM NaCl, pH8) at 37° C. Cleavage reaction was triggered by the addition of MgCl2 and then stopped after different time lengths by the addition of the stop buffer. This was followed by one hour of incubation at 37° C. to digest ADCY9 and release free DNA molecules. Cleaved and uncleaved DNA products were separated by PAGE using a TGX Any kD precast gel (Bio-Rad), stained with SYBR Green and then quantified using Quantity One software (Bio-Rad). Disappearance of substrate (uncleaved DNA) is plotted as a function of time.
To investigate the influence of C1234 methylation on the nuclease activity of I-Cre I, in vitro single turn over cleavage assays were performed with either unmethylated or methylated C1234 duplexes (unmethylated C1234 composed of SEQ ID NO: 31+SEQ ID NO: 32, C1234_Me full composed of SEQ ID NO: 35+SEQ ID NO: 38, C1234_Me-6a/-5b composed of SEQ ID NO: 33+SEQ ID NO: 36, C1234_Me-3a/-2b composed of SEQ ID NO: 34+SEQ ID NO: 37, C1234_Me-3a composed of SEQ ID NO: 34+SEQ ID NO: 32, C1234_Me-2b composed of SEQ ID NO: 31+SEQ ID NO: 37, respectively). A constant amount of C1234 duplex (50 nM) was incubated with an excess of I-Cre I (1.5 μM, final concentration) in the reaction buffer (10 mM Tris-HCl, 150 mM NaCl, pH8) at 37° C. Cleavage reaction was triggered by the addition of MgCl2 and then stopped after different time lengths by the addition of the stop buffer (45% glycerol, 95 mM EDTA, 1.5% (w/v) SDS, 1.5 mg/mL proteinase K and 0.048% (w/v) bromophenol blue, final concentrations). This was followed by one hour incubation at 37° C. to digest I-Cre I and release free DNA molecules. Cleaved and uncleaved DNA products were separated by PAGE using a TGX Any kD precast gel (Bio-Rad), stained with SYBR Green and then quantified using Quantity One software (Bio-Rad). […]

`Nc1ncn([C@H]2C[C@H](O)[C@@H](CO)O2)c(=O)n1` [5-aza-2′deoxycytidine, reference compound]: the “amount of methylated CpG within ADCY9 target” value in data set [1] turned out to be 40%.

B1: XPC4: engineered meganuclease (SEQ ID NO: 2) designed to cleave xeroderma pigmentosum group C gene (XPC) (protein)
chain: MANTKYNEEFLLYLAGFVDGDGSIIAQIKPNQSHKFKHALQLTFKVTQKTQRRWFLDKLVDEIGVGYVQDSGSVSNYILSEIKPLHNFLTQLQPFLELKQKQANLALKIIEQLPSAKESPDKFLEVCTWVDQVAALNDSKTRKTTSETVRAVLDSLSEKKKSSPAAGGSDKYNQALSKYNQALSKYNQALSGGGGSNKKFLLYLAGFVDSDGSIIAQIKPNQSHKFKHQLSLAFQVTQKTQRRWFLDKLVDRIGVGYVRDRGSVSDYILSKIKPLHNFLTQLQPFLKLKQKQANLVLKIIEQLPSAKESPDKFLEVCTWVDQVAALNDSKTRKTTSETVRAVLDSLSEKKKSSP
For B1, the “mutagenesis, PCR fragments carrying a mutation” value in data set [2] (Si_AS 1 nM (control siRNA)) came to 0.3%; in data set [2] (Si_AS 5 nM (control siRNA)), 0.2%; in data set [2] (Si_DNMT1 1 nM), 4.8%; in data set [2] (Si_DNMT1 5 nM), 7.6%. Moreover, the “PCR fragments carrying a mutation” value in data set [2] (XPC4 meganuclease, non relevant siRNA (si_AS)) is on record as 0.2-0.3%. Further, the mutations result in data set [2] (XPC4 meganuclease, samples treated with si_DNMT1) was “up to 7%”.

B2: ADCY9: engineered meganuclease (SEQ ID NO: 3) designed to cleave adenylate cyclase 9 gene (protein)
chain: MANTKYNEEFLLYLAGFVDGDGSIIAQIKPNQSYKFKHQLSLTFRVTQKTQRRWFLDKLVDEIGVGYVRDSGSVSNYDLSEIKPLHNFLTQLQPFLELKQKQANLVLKIIEQLPSAKESPDKFLEVCTWVDQVAALNDSKTRKTTSETVRAVLDSLSEKKKSSPAAGGSDKYNQALSKYNQALSKYNQALSGGGGSNKKFLLYLAGFVDSDGSIIAQIKPDQSYKFKHQLGLTFQVTQKTQRRWFLDKLVDRIGVGYVRDRGSVSDYILSEIKPLHNFLTQLQPFLKLKQKQANLVLKIIEQLPSAKESPDKFLEVCTWVDQVAALNDSKTRKTTSETVRAVLDSLSEKKKSSP
For the molecule B2, the kcat in the data set with ADCY9.1 DNA target (ADCY9.1_Me −3a/−2b (fully methylated)) is less than 1.7e-06 s⁻¹; in the data set on ADCY9.1 DNA target (unmethylated ADCY9.1), 0.00095 ± 1.7e-05 s⁻¹. Further, in the data set on ADCY9.1 DNA target (fully methylated ADCY9.1, even after 5 hours), the “substrate disappearance” value is “no substrate disappearance was observed”.
